The IC50 is the point on the concentration scale where inhibition reaches its midpoint. Read a high IC50 as weaker potency.

Like-named read-outs stand apart in the source and are kept apart here. Non-standard residues stand in square brackets, D forms with d. No end group written: not given here. Abu = CC[C@H](N)C(=O)O

In assay [1] the target is HLA-B*0702 (human). The assay can be described thus: 125I-probe peptide inhibition, purified HLA.
The next assay concerns the target HLA-B*3501 (human). Description: 125I-probe peptide inhibition, purified HLA.
The target of assay [2] is HLA-B*5401 (human). The assay can be described thus: 125I-probe peptide inhibition, purified HLA.
The target of assay [3] is HLA-B*5301 (human). Description: 125I-probe peptide inhibition, purified HLA.
Assay [4] addresses HLA-B*5101 (human). Description: competition vs 125I probe peptide, purified HLA.
Assay [5] addresses HLA-B*5301 (human). Description: competition vs 125I probe peptide, purified HLA.
The target of assay [6] is HLA-B*5401 (human). Description: competition vs 125I probe peptide, purified HLA.
For assay [7], the target named is HLA-B*0702 (human). Description: competition vs 125I probe peptide, purified HLA.
The target in another assay is HLA-A*2402 (human). Description: competition vs 125I probe peptide, purified HLA.
For assay [8], the target named is HLA-A*0206 (human). The assay can be described thus: 125I-probe peptide inhibition, purified HLA.
In another assay the target is HLA-A*0203 (human). Description: 125I-probe peptide inhibition, purified HLA.
For assay [9], the target named is HLA-A*0206 (human). Description: 125I-probe peptide inhibition, purified HLA. The source holds these as a separate data set.
The target in assay [10] is HLA-B*5101 (human). Description: 125I-probe peptide inhibition, purified HLA.
The target in a further assay is HLA-A*6801 (human). The assay can be described thus: 125I-probe peptide inhibition, purified HLA.

In the case of FPAPAAPTPA [p53.74.F1 (10-mer)], the IC50 with HLA-B*0702 [1] came out at 0.8 nM; with HLA-B*3501, 28 nM; in the assay with HLA-B*5401 [2] it was 1.1 nM.
For FPSWPLSSSI [p53.88.F1110], the IC50 with HLA-B*5301 [3] worked out at 8.5 nM; with HLA-B*5401 [2], 2.4 nM.
In the case of FPALNKMI [p53.127.F1I8], in the assay with HLA-B*5101 [4], the IC50 was 220 nM.
As for FPAPSWPI [p53.86.F118], the IC50 with HLA-B*0702 [1] is 120 nM; with HLA-B*3501 it was 4.8 nM; in the assay with HLA-B*5301 [3], 3.3 nM; with HLA-B*5401 [2], 1.6 nM.
FPAPSWPL [p53.86.F1]: the figures for the IC50 in the assay with HLA-B*3501, in the assay with HLA-B*5301 [3] and with HLA-B*5401 [2] were 3.1 nM, 4 nM and 9.1 nM, respectively.
Take FPTPAAPI [p53.79.F118]: the IC50 came to 90 nM with HLA-B*0702 [1], 6200 nM with HLA-B*5301 [3] and 7.7 nM in the assay with HLA-B*5401 [2].
Regarding FPRMPEAAPPI [p53.63.F1111], the IC50 with HLA-B*5301 [3] is 5470 nM; in the assay with HLA-B*5401 [2], 2.9 nM.
As for FPRMPEAAPPV [p53.63F1], in the assay with HLA-B*5401 [2], inhibition was half-maximal at 0.3 nM (IC50). That is a sub-nanomolar value.
For the molecule FPSWPLSSSV [p53.88.F1], the half-maximal inhibitory concentration (IC50) was determined as 93 nM with HLA-B*5301 [5] and 0.3 nM with HLA-B*5401 [6].
The molecule FPAPAPSWPI [p53.84.F1110] registered an IC50 with HLA-B*5401 [2] of 1.2 nM.
On to FPAPAPSWPL [p53.84.F1], for which the IC50 with HLA-B*3501 was 5.1 nM; with HLA-B*5401 [2] it was 1.7 nM.
As for FPILTIITI [p53.249.F1I9], the IC50 in the assay with HLA-B*0702 [7] amounted to 74 nM; in the assay with HLA-B*5101 [4] it was 9 nM; with HLA-B*5301 [5], 4 nM; with HLA-B*5401 [6] it was 1.8 nM.
With FPILTIITL [p53.249.F1], the concentration for half-maximal inhibition (IC50) with HLA-B*0702 [7] turned out to be 6.5 nM; with HLA-B*5401 [6], 5 nM.
Consider FPAAPTPAAPA [p53.76.F1 (11-mer)], for which the half-inhibitory concentration (IC50) with HLA-B*0702 [1] was 34 nM; with HLA-B*5401 [2] it was 1.3 nM.
For the molecule FPLPSQAI [p53.33.F1], the IC50 with HLA-B*3501 is 720 nM; with HLA-B*5301 [3], 291 nM; with HLA-B*5401 [2] it was 83 nM.
FPPVAPAPAI [p53.70.F1110]: the values for the IC50 in the assay with HLA-B*0702 [1] and in the assay with HLA-B*5401 [2] were 290 nM and 63 nM, respectively.
On to TYQGSYGFRF [p53.102.F10], for which the half-maximal inhibitory concentration (IC50) with HLA-A*2402 is 30 nM.
As for [Abu]QLAKT[Abu]PV [p53.135B1B7], in the assay with HLA-A*0206 [8], it took 67 nM to reach half-maximal inhibition (IC50). This lies in the double-digit nanomolar range.
[Abu]LLAKT[Abu]PV [p53.135B1L2B7]: the IC50 came out at 7.7 nM with HLA-A*0203 and 64 nM with HLA-A*0206 [9].
FPAAPTPAA [p53.76.F1 (9-mer)]: the values for the IC50 with HLA-B*5101 [10], with HLA-B*5301 [3] and in the assay with HLA-B*5401 [2] were 809 nM, 620 nM and 1 nM, respectively.
Regarding FPAPAAPTPAA [p53.74.F1 (11-mer)], the IC50 came out at 87 nM with HLA-B*0702 [1] and 2.1 nM with HLA-B*5401 [2].
The molecule SS[Abu]MGGMNK [p53.240 (9-mer SSBMGGMNK)] showed an IC50 in the assay with HLA-A*6801 of 140 nM.
